Assay results taken from the DeepSol protein solubility set.

Assay: soluble on expression in E. coli; label from the status in PepcDB or PDB records
With “GSHMLFAEFAEFCERLEKISSTLELTARIAAFLQKIEDERDLYDVVLFITGKVYPPWDERELGVGIGLLYEALENVSGVKRSEIESMIREYGDLGLVAEQLIKKKKMTTLAFEELTVRKVRETFDEIASLTGEGSMKRKIMLLTGLYGLATPLEARYLTRLILNEMRLGVGEGIMRDAIARAFRADPETVERAYMITNDLGRVAVVAKKEGEEGLRKMKIEIHIPVRMMLAQVAESLESAVREMRTAAVEWKFDGSRVQVHWDGSRVTIYSRRLENVTNALPDIVEEIKKSVKPGVILDGEVIAVKEGKPMPFQHVLRRFRRKHDVAKMVEKIPLEAHFFDILYHDGECIDLPLRERRKLLESAVNESEKIKLAKQIVTDSVDEVRKMYDEAISAGHEGVMIKLPSSPYIPGKRGKNWLKVKAIMETLDLVVVGGEWGEGKRSHWLSSFELACLDPVTGKLLKVGRVATGFTEEDLEELTEMFRPLIVSQQGKKVEFIPKYVFEVAYQEIQKSPKYESGYALRFPRFVRLRDDKDVDEADTIERVENLYKLQFEVKRQ” the “soluble on expression in E. coli” value was “soluble”.
With “GSHMRKIQRYVRKDGKCNVHHGNVREKRAETLVFSTHAVISMRDGKLCLMFRVGDLRNSHIVEASIRAKLIKSKQTSEGEFIPLNQTDINVGYYTGDDRLFLVSPLIISHEINQQSPFWEISKAQLPKEELEIVVILEGMVEATGMTCQARSSYITSEILWGYRFTPVLTLEDGFYEVDYNSFHETYETSTPSLSAKELAELANRAEV” the “soluble on expression in E. coli” value was “soluble”.
For “GSHMTAEADTSSELAKKSKEVFRKEMSQFIVQCLNPYRKPDCKVGRITTTEDFKHLARKLTHGVMNKELKYCKNPEDLECNENVKHKTKEYIKKYMQKFGAVYKPKEDTELE”, the “soluble on expression in E. coli” value was “soluble”.
In the case of “GSHMTNDIYFMTLAIEEAKKAAQLGEVPIGAIITKDDEVIARAHNLRETLQQPTAHAEHIAIERAAKVLGSWRLEGCTLYVTLEPCVMCAGTIVMSRIPRVVYGADDPKGGCSGSLMNLLQQSNFNHRAIVDKGVLKEACSTLLTTFFKNLRANKKSTN”, the “soluble on expression in E. coli” value is reported as “soluble”.
For “GSHPLGDTSDASKLSSDYSLPDLINTRKVPNNWQTGEQASLEEGRIVLTSNQNSKGSLWLKQGFDLKDSFTMEWTFRSVGYSGQTDGGISFWFVQDSNIPRDKQLYNGPVNYDGLQLLVDNNGPLGPTLRGQLNDGQKPVDKTKIYDQSFASCLMGYQDSSVPSTIRVTYDLEDDNLLKVQVDNKVCFQTRKVRFPSGSYRIGVTAQNGAVNNNAESFEIFKMQFFNGVIEDSLIPNVNAMGQPKLITKYIDQQTG”, the “soluble on expression in E. coli” value was “soluble”.
With “GSMAGSVGAAAPVTAANGDDSESETSESDDDSPPRPAAVAVHKREEDEEEDDEFEEVADDPIVMVAGRPFSYSEVSQRPELVAQMTPEEKEAYIAMGQRMFEDLFE” the “soluble on expression in E. coli” value was “soluble”.
With “GSMAWHLGIRSQSRPNDIMAEVCRAIKQLDYEWKVVNPYYLRVRRKNPVTSTFSKMSLQLYQVDSRTYLLDFRSIDDEITEAKSGTATPQRSGSISNYRSCQRSDSDAEAQGKPSEVSLTSSVTSLDSSPVDVAPRPGSHTIEFFEMCANLIKILAQ” the “soluble on expression in E. coli” value was “soluble”.
With “GSPLPWCPHLVAVCPIPAAGLDVTQPCGDCGTIQENWVCLSCYQVYCGRYINGHMLQHHGNSGHPLVLSYIDLSAWCYYCQAYVHHQALLDVKNIAHQNKFGEDMPHPH” the “soluble on expression in E. coli” value was “soluble”.
With “GSSGSSGGEIIEGCRLPVLRRNQDNEDEWPLAEILSVKDISGRKLFYVHYIDFNRRLDEWVTHERLDLKKIQFPKKEAKTPSGPSSG” the “soluble on expression in E. coli” value was “soluble”.
For “GSSGSSGHESETTTSLVLERSLNRVHLLGRVGQDPVLRQVEGKNPVTIFSLATNEMWRSGDSEVYQLGDVSQKTTWHRISVFRPGLRDVAYQYVKKGSRIYLEGKIDYGEYMDKNNVRRQATTIIADNIIFLSDQTKEKE”, the “soluble on expression in E. coli” value was “soluble”.
For “GSSSLIRRVISTAKAPGAIGPYSQAVLVDRTIYISGQIGMDPSSGQLVSGGVAEEAKQALKNMGEILKAAGCDFTNVVKTTVLLADINDFNTVNEIYKQYFKSNFPARAAYQVAALPKGSRIEIEAVAIQGPLTTASL”, the “soluble on expression in E. coli” value was “soluble”.
With “GSVTVPEVIASEVISYAQEENLLRKYGTVIRTAGDVKYPILVKKAEANVNKKERTTDITETAIQFDEILLDPAEFDALATVTKKLLKMSGVPVEDIVVEELKKAYVRKEINYMFNGDDAGNENPGALAKKAVAFEKPVDLTAAGAGQKLYDALIEFKNTPVTEVMKKGRFIINRAALTAIEKMKTDDGFPLLRPFTQAEGGIGYQLVGYPVDWTDAADKKGEPDTPVLYFGDFSAFKIQEVIGALEIQKLVEKFSGKNQVGFQIYNLLDGQLVYSPFEPAVYRYEITKPVGG” the “soluble on expression in E. coli” value was “not soluble”.
In the case of “GTPEQLQAWRWEREIDERNRPLSDEELDAMFPEGYKVLPPPAGYVPI”, the “soluble on expression in E. coli” value is reported as “soluble”.
For “GTTKHSKLLILGSGPAGYTAAVYAARANLQPVLITGMEKGGQLTTTTEVENWPGDPNDLTGPLLMERMHEHATKFETEIIFDHINKVDLQNRPFRLNGDNGEYTCDALIIATGASARYLGLPSEEAFKGRGVSACATCDGFFYRNQKVAVIGGGNTAVEEALYLSNIASEVHLIHRRDGFRAEKILIKRLMDKVENGNIILHTNRTLEEVTGDQMGVTGVRLRDTQNSDNIESLDVAGLFVAIGHSPNTAIFEGQLELENGYIKVQSGIHGNATQTSIPGVFAAGDVMDHIYRQAITSAGTGCMAALDAERYLDGLADAK”, the “soluble on expression in E. coli” value was “soluble”.
With “GTTVHCDYLNRPHKSIHRRRTDPMVTLSSILESIINDMRDLPNTYPFHTPVNAKVVKDYYKIITRPMDLQTLRENVRKRLYPSREEFREHLELIVKNSATYNGPKHSLTQISQSMLDLCDEKLKEKEDKLARLEKAINPLLDDDDQVAFSFILDNIVTQKMMAVPDSWPFHHPVNKKFVPDYYKVIVNPMDLETIRKNISKHKYQSRESFLDDVNLILANSVKYNGPESQYTKTAQEIVNVCYQTLTEYDEHLTQLEKDICTAKEAALEEAELESLDPMT” the “soluble on expression in E. coli” value was “soluble”.
For “GVTGVTTGFTDLDKKTAGLQPSDLIIVAARPSMGKTTFAMNLCENAAMASEKPVLVFSLEMPAEQIMMRMIASLARVDQTKIRTGQNLDEIEWNKIASVVGMFKQKNNLFIDDSSGLTPTDVRSRARRVYRENGGLSMIMVDYLQLMRAPAFSDNRTLEIAEISRSLKALAKELQVPVVALSQLNRTLEQRGDKRPVNSDL”, the “soluble on expression in E. coli” value was “not soluble”.
For “HAIFERHENDLHCEVPISFATAALGGSIEVPTLEGRVTLKIPAETQTGKVFRLRSKGMKSVRGYGQGDLLCKVVVETPVNLSREQKELLNKLQDSLENAKGTH”, the “soluble on expression in E. coli” value was “not soluble”.
For “HGPASRLLHRHIREQLKDLKEVSHESLVVGAVENAFQLMDEQMARERRGHQVEGGCCALVVIYLLGKVYVANAGDSRAIIVRNGEIIPMSREFTPETERQRLQLLGFLKPELLGSEFTHLEFPRRVLPKELGQRMLYRDQNMTGWAYKKIELEDLRFPLVCGEGKKARVMATIGVTRGLGDHSLKVCSSTLPIKPFLSCFPEVRVYDLTQYEHCPDDVLVLGTDGLWDVTTDCEVAATVDRVLSAYEPNDHSRYTALAQALVLGARGTPRDRGWRLPNNKLGSGDDISVFVIPLGGPGSYSVRASSPSPL”, the “soluble on expression in E. coli” value was “not soluble”.
For “HGYVESPASRAYQCKLQLNTQCGSVQAEPQSVEGLKGFPQAGPADGHIASADKSTFFELDQQTPTRWNKLNLKTGPNSFTWKLTARHSTTSWRYFITKPNWDASQPLTRASFDLTPFCQFNDGGAIPAAQVTHQCNIPADRSGSHVILAVWDIADTANAFYQAIDVNLSK”, the “soluble on expression in E. coli” value was “soluble”.
With “HHHHHHGCMSGRKPIIGVMGPGKADTAENQLVMANELGKQIATHGWILLTGGRSLGVMHEAMKGAKEAGGTTIGVLPGPDTSEISDAVDIPIVTGLGSARDNINALSSNVLVAVGMGPGTAAEVALALKAKKPVVLLGTQPEAEKFFTSLDAGLVHVAADVAGAIAAVKQLLAKLN” the “soluble on expression in E. coli” value was “soluble”.
For “HHHHHHGSMTIKPLRKAVFPVAGLGTRFLPATKAMPKEMLPVVDRPLIQYAVDEAVEAGIEQMIFVTGRGKSALEDHFDIAYELEATMAARGKSLDVLDGTRLKPGNIAYVRQQEPMGLGHAVWCARDIVGDEPFAVLLPDDFMFGQPGCLKQMVDAYNKVGGNLICAEEVPDDQTHRYGIITPGTQDGVLTEVKGLVEKPAPGTAPSNLSVIGRYILQPEVMRILENQGKGAGGEIQLTDAMQRMIGDQPFHGVTFQGTRYDCGDKAGFIQANLAVALSRPDLEPAVRAFAVKALG”, the “soluble on expression in E. coli” value was “soluble”.
For “HHHHHHPEIVDTCSLASPASVCRTKHLHLRCSVDFTRRTLTGTAALTVQSQEDNLRSLVLDTKDLTIEKVVINGQEVKYALGERQSYKGSPMEISLPIALSKNQEIVIEISFETSPKSSALQWLTPEQTSGKEHPYLFSQCQAIHCRAILPCQDTPSVKLTYTAEVSVPKELVALMSAIRDGETPDPEDPSRKIYKFIQKVPIPCYLIALVVGALESRQIGPRTLVWSEKEQVEKSAYEFSETESMLKIAEDLGGPYVWGQYDLLVLPPSFPYGGMENPCLTFVTPTLLAGDKSLSNVIAHEISHSWTGNLVTNKTWDHFWLNEGHTVYLERHICGRLFGEKFRHFNALGGWGELQNSVKTFGETHPFTKLVVDLTDIDPDVAYSSVPYEKGFALLFYLEQLLGGPEIFLGFLKAYVEKFSYKSITTDDWKDFLYSYFKDKVDVLNQVDWNAWLYSPGLPPIKPNYDMTLTNACIALSQRWITAKEDDLNSFNATDLKDLSSHQLNEFLAQTLQRAPLPLGHIKRMQEVYNFNAINNSEIRFRWLRLCIQSKWEDAIPLALKMATEQGRMKFTRPLFKDLAAFDKSHDQAVRTYQEHKASMHPVTAMLVGKDLKVD”, the “soluble on expression in E. coli” value was “soluble”.
In the case of “HHHHHHSSGLVPRGSHMSVKKAGVLGATGSVGQRFILLLSKHPEFEIHALGASSRSAGKKYKDAASWKQTETLPETEQDIVVQECKPEGNFLECDVVFSGLDADVAGDIEKSFVEAGLAVVSNAKNYRREKDVPLVVPIVNPEHIDVVENKVKQAVSKGGKKPGFIICISNCSTAGLVAPLKPLVEKFGPIDALTTTTLQAISGAGFSPGVSGMDILDNIVPYISGEEDKLEWETKKILGGVNAEGTEFVPIPESEMKVSAQCNRVPVIDGHTECISLRFANRPAPSVEDVKQCLREYECAASKLGCHSAPKQTIHVLDQPDRPQPRLDRDRDSGYGVSVGRIREDSLLDFKMVVLSHNTIIGAAGAGILIAEILKAKNII”, the “soluble on expression in E. coli” value is reported as “soluble”.
In the case of “HISLNPDLANEDEVNSCDYWRHCAVDGFLCSCCGGTTTTCPPGSTPSPISWIGTCHNPHDGKDYLISYHDCCGKTACGRCQCNTQTRERPGYEFFLHNDVNWCMANENSTFHCTTSVLVGLAKN”, the “soluble on expression in E. coli” value is reported as “soluble”.
In the case of “HKDFTWNTTLSATWSKEKIDKLPDGDLISENLFTGEPIHAIYGYKYAGIWGSDTPKETLDAYGVNPGFIKIETVDKNGDGGVHKYSTDDRQILGHTNPDWIIGLNNSFTYKNFDLSVFAMARYGQTINSDLLGYYTAEQSVTKNQLAGVDYWTEDNQGAYFPRPGTGDEQKTVYPSLRVHDGSFIKIKNITLGYTLPANISRKVLMEKCRIYATAYNPFIFVKDKQLKDTDPETNGSDAFPTYRQFVFGVNLTF”, the “soluble on expression in E. coli” value is reported as “not soluble”.
In the case of “HMPSVIVVGGQWGDEGKGSIVAYLSLHDEPEIIARGGVGTNAGHSVVINGKKYAVRQIPTGFMQTKARLLIGAGVLVDPEVFFHELEQLKDFNVKDRVGIDYRCAIIEEKHKQLDRTNGYLHGKIGTTGSGCGPANADRVMRKAKQAKDVKELEPYLTDVAQEINDALDEGSLVLVEGTQGFGLSLYYGTYPYVTSKDVTASSVAADVGIGPTRVDEVIVVFKSFPTRVGAGPFPTEMPMEEADRLGLVEYGTVTGRRRRVGWFDFEMARYSARINGATMLAVTMLDKYDKEAFGVTDYDKLPRKAKEFIEEIEERVGVPVGLIKTGPELEHIIDRRDTI”, the “soluble on expression in E. coli” value is reported as “soluble”.
For “HPMCKEHEDEKINIYCLTCEVPTCSMCKVFGIHKACEVAPLQSVFQGQKTE”, the “soluble on expression in E. coli” value was “soluble”.
